Assay results reported in the supplement of paper PMC10266784.

B1: library; numbered along this chain (parent)
chain: MAAAAAAAAEQQSSNGPVKKSMREKAVERRSVNKEHNSNFKAGYIPIDEDRLHKTGLRGRKGNLAICVIILLFILAVINLIITLVIWAVIRIGPNGCDSMEFHESGLLRFKQVSDMGVIHPLYKSTVGGRRNENLVITGNNQPIVFQQGTTKLSVENNKTSITSDIGMQFFDPRTQNILFSTDYETHEFHLPSGVKSLNVQKASTERITSNATSDLNIKVDGRAIVRGNEGVFIMGKTIEFHMGGNMELKAENSIILNGSVMVSTTRLPSSSSGDQLGSGDWVRYKLCMCADGTLFKVQVTSQNMGCQISDNPCGNTH

Variants of: B1
Test: SGCB cell-surface expression functional score (HA stain, bin4 vs bin1, normalised to synonymous) (log10 ratio); higher = more cell-surface SGCB (functional)
In short: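 Sorting and sequencing yield the functional score, defined as the log ratio of a variant's highest-bin frequency to its lowest-bin frequency, with the median taken over codons and replicate transductions. The libraries, codon-saturation sets of HA-tagged, YFP-fused human beta-sarcoglycan, went into HEK293 cells stably carrying alpha-, gamma- and delta-sarcoglycan by duplicate lentiviral transduction at MOI <0.1. Cells were stained on ice with Alexa Fluor 647 anti-HA, fixed and split into four 5% intensity bins, and synonymous variants were scaled per section to mean 0, SD 0.5.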

MAAAAAAAAEQQSSNGPVKKSMREKAVERRSVNKEHNSNFKAGYIPIDEDRLHKTGLRGRKGNLAICVIILLFILAVINLIITLVIWAVIRIGPNGCDSMEFHESGLLRFKQVSDMGVIHPLYKSTVGGRRNENLVITGNNQPIVFQQGTTKLSVENNKTSITSDIGMQFFDPRTQNILFSTDYETHEFHLPSGVKSLNVQKASTERITSNATSDLNIKVDGRAIVRGNEGVFIMGKTIEFHMGGNMELKAENSIILNGSVMVSTTRLPSSSSGDQLGSGDWVRYKLCMCADGTLFKVQVTSQNTGCQISDNPCGNTH [M305T] and MAAAAAAAAEQQSSNGPVKKSMREKAVERRSVNKEHNSNFKAGYIPIDEDRLHKTGLRGRKGNLAICVIILLFILAVINLIITLVIWAVIRIGPNGCDSMEFHESGLLRFKQVSDMGVIHPLYKSTVGGRRNENLVITGNNQPIVFQQGTTKLSVENNKTSITSDIGMQFFDPRTQNILFSTDYETHEFHLPSGVKSLNVQKASTERITSNATSDLNIKVDGRAIVRGNEGVFIMGKTIEFHMGGNMELKAENSIILNGSVMVSTTRLPSSSSGDQLGSGDWVRYKLCMCADGTLFKVQVTSQNEGCQISDNPCGNTH [M305E] are within 0.2 log units of each other in “SGCB cell-surface expression functional score (log10)” value: 0.02 for the first, 0.04 for the second.

Going from MAAAAAAAAEQQSSNGPVKKSMREKAVERRSVNKEHNSNFKAGYIPIDEDRLHKTGLRGRKGNLAICVIILLFILAVINLIITLVIWAVIRIGPNGCDSMEFHESGLLRFKQVSDMGVIHPLYKSTVGGRRNENLVITGNNQPIVFQQGTTKLSVENNKTSITSDIGMQFFDPRTQNILFSTDYETHEFHLPSGVKSLNVQKASTERITSNATSDLNIKVDGRAIVRGNEGVFIMGKTIEFHMGGNMELKAENSIILNGSVMVSTTRLPSSSSGDQLGSGDWVRYKLCMCADGTLFKVQVTSQNYGCQISDNPCGNTH [M305Y] to MAAAAAAAAEQQSSNGPVKKSMREKAVERRSVNKEHNSNFKAGYIPIDEDRLHKTGLRGRKGNLAICVIILLFILAVINLIITLVIWAVIRIGPNGCDSMEFHESGLLRFKQVSDMGVIHPLYKSTVGGRRNENLVITGNNQPIVFQQGTTKLSVENNKTSITSDIGMQFFDPRTQNILFSTDYETHEFHLPSGVKSLNVQKASTERITSNATSDLNIKVDGRAIVRGNEGVFIMGKTIEFHMGGNMELKAENSIILNGSVMVSTTRLPSSSSGDQLGSGDWVRYKLCMCADGTLFKVQVTSQNRGCQISDNPCGNTH [M305R], the “SGCB cell-surface expression functional score (log10)” value rises from -1.05 to -0.25.

Going from MAAAAAAAAEQQSSNGPVKKSMREKAVERRSVNKEHNSNFKAGYIPIDEDRLHKTGLRGRKGNLAICVIILLFILAVINLIITLVIWAVIRIGPNGCDSMEFHESGLLRFKQVSDMGVIHPLYKSTVGGRRNENLVITGNNQPIVFQQGTTKLSVENNKTSITSDIGMQFFDPRTQNILFSTDYETHEFHLPSGVKSLNVQKASTERITSNATSDLNIKVDGRAIVRGNEGVFIMGKTIEFHMGGNMELKAENSIILNGSVMVSTTRLPSSSSGDQLGSGDWVRYKLCMCADGTLFKVQVTSQNHGCQISDNPCGNTH [M305H] to MAAAAAAAAEQQSSNGPVKKSMREKAVERRSVNKEHNSNFKAGYIPIDEDRLHKTGLRGRKGNLAICVIILLFILAVINLIITLVIWAVIRIGPNGCDSMEFHESGLLRFKQVSDMGVIHPLYKSTVGGRRNENLVITGNNQPIVFQQGTTKLSVENNKTSITSDIGMQFFDPRTQNILFSTDYETHEFHLPSGVKSLNVQKASTERITSNATSDLNIKVDGRAIVRGNEGVFIMGKTIEFHMGGNMELKAENSIILNGSVMVSTTRLPSSSSGDQLGSGDWVRYKLCMCADGTLFKVQVTSQNSGCQISDNPCGNTH [M305S], the “SGCB cell-surface expression functional score (log10)” value rises from -0.9 to -0.39.

Compared with MAAAAAAAAEQQSSNGPVKKSMREKAVERRSVNKEHNSNFKAGYIPIDEDRLHKTGLRGRKGNLAICVIILLFILAVINLIITLVIWAVIRIGPNGCDSMEFHESGLLRFKQVSDMGVIHPLYKSTVGGRRNENLVITGNNQPIVFQQGTTKLSVENNKTSITSDIGMQFFDPRTQNILFSTDYETHEFHLPSGVKSLNVQKASTERITSNATSDLNIKVDGRAIVRGNEGVFIMGKTIEFHMGGNMELKAENSIILNGSVMVSTTRLPSSSSGDQLGSGDWVRYKLCMCADGTLFKVQVTSQNQGCQISDNPCGNTH [M305Q], MAAAAAAAAEQQSSNGPVKKSMREKAVERRSVNKEHNSNFKAGYIPIDEDRLHKTGLRGRKGNLAICVIILLFILAVINLIITLVIWAVIRIGPNGCDSMEFHESGLLRFKQVSDMGVIHPLYKSTVGGRRNENLVITGNNQPIVFQQGTTKLSVENNKTSITSDIGMQFFDPRTQNILFSTDYETHEFHLPSGVKSLNVQKASTERITSNATSDLNIKVDGRAIVRGNEGVFIMGKTIEFHMGGNMELKAENSIILNGSVMVSTTRLPSSSSGDQLGSGDWVRYKLCMCADGTLFKVQVTSQNLGCQISDNPCGNTH [M305L] is higher in “SGCB cell-surface expression functional score (log10)” value: -0.28 for the first, -0.06 for the second.

With MAAAAAAAAEQQSSNGPVKKSMREKAVERRSVNKEHNSNFKAGYIPIDEDRLHKTGLRGRKGNLAICVIILLFILAVINLIITLVIWAVIRIGPNGCDSMEFHESGLLRFKQVSDMGVIHPLYKSTVGGRRNENLVITGNNQPIVFQQGTTKLSVENNKTSITSDIGMQFFDPRTQNILFSTDYETHEFHLPSGVKSLNVQKASTERITSNATSDLNIKVDGRAIVRGNEGVFIMGKTIEFHMGGNMELKAENSIILNGSVMVSTTRLPSSSSGDQLGSGDWVRYKLCMCADGTLFKVQVTSQNVGCQISDNPCGNTH [M305V] the “SGCB cell-surface expression functional score (log10)” value was -0.22.
